8 molecules from patent publication US20240382677A1 can be followed below.

Changes are numbered by the printed parent chain.

B1: H2aM7791N (antibody, mouse IgG2a, V domains shown)
VH: QMQLQQWGAGLLKPSETLSLTCVVYGGSLNGYYWSWIRQSPGKGLEWIGEIDHSGSTNYNPSLKNRVTMSVDTSKIQFSLKLTSVTVADTAVYYCAREGLLPFDYWGQGTLVTVSS
VL: EIVLTQSPGTLSLSPGERVTLSCRASQSVYSNYLAWYQQNPGQAPRLLIYAASNRATGIPDRFSGSGSGTDFTLTISRLEPEDFAVYYCHQYATSPWTFGQGTKVEIK
B2: H2aM7795N (antibody, mouse IgG2a, V domains shown)
VH: EVQVVESGGGLVEPGRSLRLSCKASGFTFDDYAMHWVRQTPGKALEWVSGINWSGNNIGYADSVKGRFTISKDDAKNSLYLQMNSLRPEDTALYYCTKDISITGTLDAFDVWGQGTMVTVSS
VL: DIQMTQSPISVSASVGDRVTITCRASQGISNWLAWYQQKPGIAPKLLIYSASSLQSGVPSRFRGSGSGTDFTLTIGSLQPEDFATYYCQQAHSFPLTFGGGTKVEIK
B3: H1M7789N (antibody, mouse IgG1, V domains shown)
VH: EVQLLESGGGLVQPGGSLRLSCSASGFTFSSYTMNWVRQAPGKGLEWVSGISDTGGNTYYTDSVKGRFTVSRDNSKNTLSLQMNSLRAEDTAVYYCAKDQGGSYPYYFHYWGQGSLVTVSS
VL: DIQMTQSPSSLSASVGDRVTITCRASQSISSYLIWYQQKPGTAPKFLIYAASSLQSGVPSRFSGCGSGTDFTLTISSLQPEDFATYYCQQSYSTPPITFGQGTRLEIK
B4: H2aM7780N (antibody, mouse IgG2a, V domains shown)
VH: QVQLVESGGGVVQSGRSLRLSCAASGFTFSSYGMHWVRQAPGKGLEWVAVIWYDGSNIYYSDSVKGRFTISRANSKNTLYLQMNSLRAEDTAVYYCARPGHWNYFFEYWGQGTLVTVSS
VL: B3 VL with S30N, S31N, I34N, T42K, F46L, A50T, C65S, I97L, R104Q
B5: H2aM7798N (antibody, mouse IgG2a, V domains shown)
VH: EVQLLESGGVLVQPGGSLRLSCAASGFTFSNFGMTWVRQAPGKGLEWVSGISGGGRDTYFADSVKGRFTISRDNSKNTLYLQMNSLKGEDTAVYYCVKWGNIYFDYWGQGTLVTVSS
VL: DIQMTQSPSSLSASVGDSITITCRASLSINTFLNWYQQKPGKAPNLLIYAASSLHGGVPSRFSGSGSGTDFTLTIRTLQPEDFATYYCQQSSNTPFTFGPGTVVDFR
B6: H2aM7796N (antibody, mouse IgG2a, V domains shown)
VH: QVQLVESGGGVVQPGRSLRLSCAASGFTFSSYGMHWVRQAPGKGLEWVAIIWSDGDSEYNLDSVKGRFTISRDNSKNTLYLQMNSLRVEDSAVYYCARDRDLEDIWGQGTMVTVSS
VL: DIQMTQSPSSLSASVGDRVTITCRASQGIRNDLGWYQQKPGKAPKRLIYAASNLQSGVPSRFSGSGSGTEFTLTISSLQPEDFATYYCLQHNSYPLTFGGGTKVEIK
B7: H4H7798N (antibody, human IgG4 S228P, kappa, V domains shown)
VH: B5 VH
VL: DIQMTQSPSSLSASVGDSITITCRASLSINTFLNWYQQKPGKAPNLLIYAASSLHGGVPSRFSGSGSGTDFTLTIRTLQPEDFATYYCQQSSNTPFTFGPGTVVDFRR
B8: H4H7795N2 (antibody, human IgG4 S228P, kappa, V domains shown)
VH: B2 VH with N52S
VL: DIQMTQSPISVSASVGDRVTITCRASQGISNWLAWYQQKPGIAPKLLIYSASSLQSGVPSRFRGSGSGTDFTLTIGSLQPEDFATYYCQQAHSFPLTFGGGTKVEIKR

In the first assay the target is full length human PD-1 on HEK293/hPD-1 cells (human). In words: FACS, 100 nM antibody. On the technique in general: A flow cytometer gives signals particle by particle.
As for B1, the ratio of HEK293/hPD-1 to HEK293 parental cells was found to be 18 fold.

On to B2, for which the ratio of HEK293/hPD-1 to HEK293 parental cells is 2.8 fold.

Take B3: the ratio of HEK293/hPD-1 to HEK293 parental cells amounted to 92.3 fold.

Turning to B4, the ratio of HEK293/hPD-1 to HEK293 parental cells is 73.8 fold.

On to B5, for which the ratio of HEK293/hPD-1 to HEK293 parental cells was 78.1 fold.

B6: the ratio of HEK293/hPD-1 to HEK293 parental cells worked out at 168 fold.

For a further assay the target is unchanged. Description: FACS dose response, HEK293/hPD-1 cells.
Regarding B4, the 50% effective concentration (EC50) (usually the concentration at which the effect is half-maximal) worked out at 1.69 nM and the Max Geom. Mean MFI @ 100 nM is 18400 MFI.

In the case of B5, the EC50 came to 0.0698 nM and the Max Geom. Mean MFI @ 100 nM amounted to 20900 MFI.

For B7, the EC50 was 0.509 nM and the Max Geom. Mean MFI @ 100 nM worked out at 20300 MFI.

The molecule B6 gave an EC50 of 4.81 nM and a Max Geom. Mean MFI @ 100 nM of 14100 MFI.

Another assay has the same target. Description: FACS, 100 nM antibody, HEK293/hPD-1 cells.
Turning to B1, the MFI came to 4950 MFI.

B2 displayed an MFI of 817 MFI.

Take B3: the MFI amounted to 24200 MFI.

The molecule B4 yielded an MFI of 23700 MFI.

B5: the MFI is 23400 MFI.

Regarding B6, the MFI worked out at 49800 MFI.

The next assay has the same target. In words: FACS dose response, HEK293/hPD-1 cells; EC50 Inconclusive.
B8 had a Max Geom. Mean MFI @ 100 nM of 15200 MFI.

Take B3: the Max Geom. Mean MFI @ 100 nM was 35600 MFI.

For the next assay the target is unchanged. Description: FACS dose response, HEK293/hPD-1 cells; No EC50 determined.
B1: the Max Geom. Mean MFI @ 100 nM turned out to be 1400 MFI.

As to B6, the Max Geom. Mean MFI @ 100 nM amounted to 624 MFI.
